This note sets out measurements from the nanobody polyreactivity screen of Harvey et al. (2022).

This data set is described as follows: yeast display, Sf9 membrane polyspecificity reagent, FACS + sequencing; frameworks hold sequencing errors. Summed up:
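Nanobodies from a synthetic yeast display library (Saccharomyces cerevisiae BJ5465), induced 36–48 hours with galactose, were stained 1 hour at 4 °C with 10% biotinylated, detergent-solubilized Sf9 membrane reagent, enriched on streptavidin microbeads, then FACS-sorted. Anti-HA (expression) and streptavidin (reagent binding) fluorescence set low and high (top ~1%) gates. Polyreactivity labels come from the gate of origin. Genes were colony-PCR amplified, MiSeq 2 × 250 sequenced and filtered by CDR length.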
For “QVQLQESGGGLVQAGGSLRPRCAAGGTIFVSVNMGWYRHAPGEEREFVASITQGATTNYADSLIGRFTISRDNAKNTVYLQMNCQNQEDTAVYYCAVHESGGITFTYWGQGTQVTVSS”, the “polyreactivity (PSR sort gate)” value is on record as “high polyreactivity”.

Regarding “QVQLVESGGGLVQAGGSLRLICAASGIIFPFYVMGWYRQAPGKERELVAAITWSGDGTYYADSVKGRFTISRDNAKNTVYLQMNSLKPEDTAVYYCAAQWYYGGVKYYYWGQGTIVTVSS”, the “polyreactivity (PSR sort gate)” value is on record as “low polyreactivity”. Turning to “QVQLVESGGCLVQAGGSLRLSCAASGYIFYGYAMGWYRQAPGKERELVAAITVRGGSTYYADSVKGRFRISRDNAKNTVYLQMNSLKPQDTAVYYCAAAPQFTFGVGYWGQGTQVTVSS”, the “polyreactivity (PSR sort gate)” value is on record as “low polyreactivity”. With “QVKLVESGRGLVHAGGSLRLSSAASANTFPPNARGCYIPAPGKERELVSAISRSGVSTYYADSVKGRFTISRDNANNTVYLQMNSLKPEDTAVYYCAAPLIYTPLKYHYWGQGTQVTVSS” the entry was “low polyreactivity”; with “QVQLVESGGGLVQAGGSLRLSCAASGFTFTKYAMGWYRQAPGKERELVAAISGRGGSTYYADSVKGRFTISRDNAKNTVYLQMNSLKPEDTAVYYCAKYRYTVAGYNYWGQGTQVTVSS”, “high polyreactivity”. With “QVQLVESGGGLVQAGGSLRLSCAASGSTSYVYAMGWYRQAPGKERELVAAISGSGGRTYYADSVKGRFTISRDNAKNTVYLQMNSLKPEDTAVYYCNALPRPSYPFDYWGQGTQVTVSS” the entry was “high polyreactivity”; with “QVQLVESGGGLVQAGGSLRLSCASSGSTIYYNAMGWYRQAPGKERELVAAISNAGSTYYADSVKGRFTISRDNAENTVYLQMNSLKPEDTAVYYCAKRFRGITYSYYYWGQGTQVTVSS”, “high polyreactivity”; with “QVQLVESGGGLVQAGGSLRLSCAASGSTIDYYAMGWYRQAPGKERELVAAISWSGGSTYYADSVKGRFTISRDNAKNTVYLQMYSLKTEDTAVYYCAAYSAFYTGSYNGWSDYDYWGQGTQVTVSS”, “low polyreactivity”. Consider “QVQLVVSGGGLVQAGGSLRLSCAASGFTFGYYAMGWYRQAPGKERELVAAITASGARTYYADSVKGRFTISRDNAKNTVYLQMNSLKPEDTAVYYCAAYTNAYRERWPDYGYWGQGTQVTVSS”, for which the “polyreactivity (PSR sort gate)” value is given as “high polyreactivity”.

As for “QVQLVESGGGLVQAGGSLRLSCAASGFIFSYYAMGWYRQAPGKERELVAAISISGGSTYYADSVKGRFTISRDNAKTTVYLQMNSLKPEDTAVYYCNKAPRYPYGGYDYWGQGTQVTVSS”, the “polyreactivity (PSR sort gate)” value is “low polyreactivity”.

Regarding “QVQLVESGGGLVQAGGSLRLSCAASGFIYSKYAMRWYRQAPGKERELVAAITFSGGSTYYADSVKGRFTISRDNAKKTVYLQMNSLKPEDTAVYYCNAEGSYPDVSPVLGYDYWGQGTQVTVSS”, the “polyreactivity (PSR sort gate)” value is listed as “low polyreactivity”. Turning to “QVQLEESGGGLVQAGGSLRLSCAASGSIFGYYAMGWYRKATGKEREFVADINSRDGGTYYADSVKGRFTISRDNAKNTVYLQMNSLKPEDTAVYYCAAPYYAAWVAVAIEYDYWGQGTQVTVSS”, the “polyreactivity (PSR sort gate)” value is recorded as “low polyreactivity”. Regarding “QVQLVESGGGLVQAGGSLRLSCAASGGNFGTNDMGWYRQAPGKERELVAAITSDSGSTYYADSVKGRFTISRDNAKNTVYLQMNSLKPEDTAVYYCAAEDGPWFYRYGYWGQGTQVTVSS”, the “polyreactivity (PSR sort gate)” value is “low polyreactivity”. In the case of “QVQLVESGGGLVQAGGSLRLSCAASGRTFTSYAIGWYRQAPGKERELVAAISGSGSRTKYADSVKGRFTISRDNAKNTVYLQMNSLKPEDTAVYYCNADYRHRHDYWGQGTQVTVSS”, the “polyreactivity (PSR sort gate)” value is “high polyreactivity”. With “QVQLVESGGGLVQAGGSLRLSCAASGSIFAWYAMGWYRQAPGKERELVATITWSGGSTYYADSVKGRFTISRDNAKNTVYLQMNSLKPEDTAVYYCAAEVVGICYDLWYQGDYWGQGTQVTVSS” the entry was “low polyreactivity”; with “QVQLVESGGGLVQAGGSLRLSCAASGSTFDKYAMGWYRQAPGKERELVAAITWGGGSTYYADSVKGRFTISRDNAKNTVYLQMNSLKPEDTAVYYCAAEQGSSVLYDSWGQGTQVTVSS”, “low polyreactivity”; with “QVQLVELGGGLVQAGGSLRLSCAASGSIFSRNTMGWYRQAPGKERELVAGISSSGSRTYYADSVKGRFTISRDNAKNTVYLQMNSLKPEDTAVYYCNARYYWKQAADYNYWGQGTQVTVSS”, “low polyreactivity”. With “QVQLVESGAGLVQAGGSLRLSCAPSGRIFTPYAMGWYRQAPGKERELVAVIRDGSTYYADSVKGRFTISRDNSKNTVYLQMNSLKPEDTAVYYCRYDIWVWWSGAYDYWGQGTQVTVSS”, the “polyreactivity (PSR sort gate)” value is listed as “low polyreactivity”. For the sequence “QVQLVESGGGLVQAGGSLRLSCAASGSTLIRNVMGWYRQAPGKESELDAAITWSGASTYYADSVKGRFTISRDNAKNTVYLQMNSLKPEDTAVYYCAARALNWSRVARYNYWGQGTQVTVSS”, the “polyreactivity (PSR sort gate)” value was “high polyreactivity”. On to “QVQLVESGGGLVQAGGSLRLSCAASGRTFCTNAMGWYRQAPGKERELVAVISGSTGSTYYADSVKGRFTISRDNAKNTVYLQMNSLKPEDTAVYYCAASYRNTGRWSYRGDYWGQGTQVTVSS”, for which the “polyreactivity (PSR sort gate)” value is “high polyreactivity”. As to “QVQLVESGGGLVQAVVSLRLSCAASGRIFAYNAMGWYIQATGKERELVAAISSGGNTYYADSVKGRFTISRDNAKNTVYLQMNSLKPEDTAVYYCNAGVGWHRYYSNYDYWGLGTQVTVSS”, the “polyreactivity (PSR sort gate)” value is reported as “low polyreactivity”. “QVQLVESGGGLVQAGGSLRLSCAASGRTFGVNTMGCYRQAPGKEREFVASISTSGGSTYADSVNGRFTISRDNAKNTVYLQMNSLKPEDTAVYYCAKDTDAVYDEYDSWGQGTQVTVSS”: the “polyreactivity (PSR sort gate)” value is given as “low polyreactivity”. With “QVQLVESGGGLVQAGGSLRLSCAASGFTSWVYAMGWYRPAPGKERELVAAITWSTDDTYYADSVKGRFTISRDNSKNTVYIQINSLKPEDSAVYYCAAQQYTYVETWDGYDYWGQGTQVTVSS” the entry was “low polyreactivity”. With “QVQLVESGGGLVQAGGSLRLSCAASGRTFLPNAMGWYRQAPGKDRELVAVITSGGSTNYADSVKGRFTISRDNAKNTVYLQMNSLKPEDTAVYYCAARRWSSSQGHWGKSAGYGYWGQGTQVTVSS” the entry was “low polyreactivity”; with “QVQLVESGGGLVQAGGSLRLSCAASGITVYVNVMGWYRQAPGKERELVAGISYSGGSTYYADSVKGRFTISRDNAKNTVYLQMNSLKPEDTAVYYCAADYWYYGSPVSRPYYYWGQGTQVTVSS”, “high polyreactivity”. With “QVQLVESGGGLVQAGGSLRLSCAASGSTFRYYAMGRYRQAPGKERELVAVISTSGNTYYADSVKGRFTISRDNAKNTVYLQMNSLKPEDTAGYYCAAGGVGGQISQEYDYWGQGTQVTVSS” the entry was “low polyreactivity”.

As to “QVQLVESGGGLVQAGGSLRLSCAASGSIFKHNAMGWYRQAPGKERELVATISESGGSTYYADSVKGRFTISRDNAKNTVYLQMNSLKPEDTAVYYCNTDYDYGWWDLGEYDYWGQGTQVTVSS”, the “polyreactivity (PSR sort gate)” value is on record as “low polyreactivity”. As to “QVQLVESGGGLVQAGGSLRLSCAASGFTFPANAMGWYRQAPGKERELVATITWSGGNTYYADSVKGRFTISRDNAKNTVYLQMNSLKPEDTAVYYCAKDYDPYHEQQSSEHDDYWGQGTQVTVSS”, the “polyreactivity (PSR sort gate)” value is “low polyreactivity”. Consider “QVQLVESGGGLVQAGGSLRLSCPASGSIFYTNAMGWYRQAPVKERELVAAISRGGSTKYADSVKGRFTISRDNAKNSVYLQMNSLKPEDTAVYYCAARGTASRYLYIPYYYWGQGTQVTVSS”, for which the “polyreactivity (PSR sort gate)” value is on record as “high polyreactivity”. Take “QVQLVESGGGLVQAGGSLRLSCAASGSIFEEYAMGWYRQAPGKERELVARIDESGGSTYYADSVKGRFTISRDNAKNTVYLQMNSLKPEDTAVYYCAAERYSDSWGYYSVDEGSWEMDYWGQGTQVTVSS”: the “polyreactivity (PSR sort gate)” value is “low polyreactivity”.

As for “QVQLVESGGGLVQAGGSLRLSCAASGFTLTRNAMGCYRQAPGKERELVAAISWSGGTTYYADSVKGRFTISRDNAKNTVYLQMNSLKPEDTAVYYCNTASWRAQYYYWGQGTQVTVSS”, the “polyreactivity (PSR sort gate)” value is on record as “high polyreactivity”. With “QVQLVESGGGLVQAGGSLRLSCDASGSIFDPYAMGWYRQAPGKERELVAGISFSGGRTYYADSVKGRFTISRDNAKNTVYLQMNSLKPEDTAVYYCKKLLTQGAYPYYYWGQGTQVTVSS” the entry was “high polyreactivity”; with “QVQLLESGGGLVQAGGSLRLSCAASGRTIRNNTMGWYRQAPGKERELVARITWSGGSTYYADSVKGRFTISRDNAKNNVYLKMNRLKQEDTAVYYCAAVPILVYLWFQSYTGDYDYWGQGTQVTVSS”, “low polyreactivity”; with “QVQLVESGGGLVQAGGSLRLSCAASASTVSRYAMGWYRQAPGKEREVVAGISWSGGNTYSADSVKGRFTISRDNAKNTVYLQMNSLKPEDTAVYYCAADFLDYWGVYGWAEYEYWGQGTQVTVSS”, “low polyreactivity”. Take “QVQHVESGGGLVQAGGSLRLSCPASGIIIYQYALGSYRQAPGKERELVAAISSGVNTYYADSVKGRFTISRDNAKNTVYLQMNSLKPEDTAVYYCAARLTFGYLRSKFYYWGQGTQVTVSS”: the “polyreactivity (PSR sort gate)” value is on record as “high polyreactivity”. With “QVQLVVSGGGLVQAGGSLRLSCAASGRTFYRYAMGWYRQAPGKEWELVAAISASGGITYYADSVKGRFTISRDNAKNTVYLQMNSLKPEDTAVYYCKAVWRKTEYDYWGQGTQVTVSS” the entry was “high polyreactivity”; with “QVQLVESGGGLVQAGGSLRLICAASGSTFEAYAMGWYRQAPGKDSELVAAIRSSGSTSYADSVKGRFTISRDNAKNTVYLQMKSLKPEDTALYYGAARVRGYPRYKRDYWGQGTQVTVSS”, “high polyreactivity”. With “QVQLVESGGGLVQAGGSLRLSCAASGRTFRRNAMGWYRQAPGQERELVAGIRKRGGSTYYADSVKGRFTISRDNAKNTVYLQMNSLKPQDTAVYYCAAQPALTYRFYYWGQGTQVTVSS” the entry was “high polyreactivity”. With “QVQLVESGGGLVQAGGSLRLSCAASGFTFNYYAMGWYRQAPGKEREFVAAISYGGGDTYYADSVKGRFTISRDNAKNTVYLQMNSLKPEDTAVYYCNARFRKRAYRYDYWGQGTLVTVSS” the entry was “high polyreactivity”; with “QVQLVESGGGLVQAGGSLRLSCAASGRTFSYNAMGWYRQAPGKERELVAAISSGGSTYYADSVKGRFTISRDNAKNTVYLQMNSLKPEDTAVYYCAADSPSVWGYRYDYDYWGQGTQVTVSS”, “low polyreactivity”.
